Results reported in patent publication US10471162B2, “Collagen targeted imaging probes” (priority 2014, dated 2019).

Columns and labels:
[1] = tested on: pulmonary fibrosis, C57Bl/6 mice (low dose bleomycin, FTY720); assay: in vivo; parameters: species or system mouse
Method: (§1) Adult male C57Bl/6 mice were administered a single intratracheal dose of low dose bleomycin at 0.1 U/kg (low dose), in a total volume of 50 μl sterile saline. FTY720 was administered intraperitoneally to the mice at 1 mg/kg three times a week. Animals were placed in a small-animal PET/SPECT/CT scanner (Triumph; TriFoil Imaging), equipped with inhalation anesthesia and heating pad. Each animal was anesthetized with isoflurane (4% for induction, 2-2.5% for maintenance in medical air) and body temperature was kept at 37-38° C. using a heating pad. The femoral vein was cannulated for intravenous delivery of the PET agent. Each mouse was injected with approximately 0.1 mL and 20-50 μCi of ^64Cu-CBP(n), 0.1 mL and 20-50 μCi of ^68Ga-CBP(n) and 0.1 mL and 10-20 μCi of Al^18F-CBP(n) in a 18 mM solution of sucrose in water, followed by saline flush. […] The lungs, blood, urine, heart, liver, left rectus femoris muscle, spleen, small intestine, kidneys, left femur bone were collected from all animals. The tissues were weighed, and radioactivity in each tissue was measured on a gamma counter (CobraII Auto gamma; Packard). The radioactivity in the lung was reported as percent injected dose per gram corrected with the average sham weight, which was calculated by dividing the counts of ^64Cu per average sham tissue weight in gram by the total of counts of the injected dose. The radioactivity in every other tissue was reported as percent injected dose per gram (% ID/g), which was calculated by dividing the counts of ^64Cu per gram of tissue by the total of counts of the injected dose. A p-value of less than 0.05 was considered significant. Uncertainties are expressed as the standard error of the mean.

in vivo = assay: in vivo; parameters: species or system mouse; conditions: male, C57Bl/6, mouse, iv, total radioactivity, Biodistribution % ID/g
Method: as §1

[2] = tested on: pulmonary fibrosis, C57/BL6 mice (bleomycin or sham); conditions: mouse, in vivo
Method: Pulmonary fibrosis was induced in 7-8-week-old male C57/BL6 mice by transtracheal administration of bleomycin (BM; 2.5 U/kg) in 50 μL of PBS under direct vision using a small cervical incision. Sham animals received only PBS. Animals were placed in a small-animal PET/SPECT/CT scanner (Triumph; TriFoil Imaging), equipped with inhalation anesthesia and heating pad. Each animal was anesthetized with isoflurane (4% for induction, 1-1.5% for maintenance in medical air). After placement of an in-dwelling catheter in the femoral vein for probe administration, mice were positioned in the PET-CT and the probe was given as a bolus as the PET acquisition began. Mice were imaged continuously by PET for 120 minutes. […] Instrument calibration was performed with phantoms containing small known amounts of radioactivity. […] Reconstructed PET/CT data were quantitatively evaluated using AMIDE software package (Loening and Gambhir, 2003). […] The radioactivity concentration within organs was obtained from mean pixel values within the VOI volume and converted to counts per milliliter per minute and then divided by the injected dose (ID) to obtain an imaging VOI-derived percentage of the injected radioactive dose per cubic centimeter of tissue (% ID/cc). […] Instrument calibration was performed with phantoms containing small known amount of radioactivity. […]

[3] = male, C57Bl/6, mouse, iv, 2.5 h

## CC(C)C[C@H](NC(=O)[C@@H]1CSSC[C@H](NC(=O)[C@H](Cc2c[nH]cn2)NC(=O)[C@H](Cc2c[nH]c3ccccc23)NC(=O)[C@H](CCCCNC(=O)CNC(=O)CCC(C(=O)O)N2CCN(CC(=O)O)CCN(CC(=O)O)CC2)NC(=O)CNC(=O)CCC(C(=O)O)N2CCN(CC(=O)O)CCN(CC(=O)O)CC2)C(=O)N[C@@H]([C@@H](C)O)C(=O)N[C@@H]([C@@H](C)O)C(=O)N[C@@H](CCCCNC(=O)CCC(C(=O)O)N2CCN(CC(=O)O)CCN(CC(=O)O)CC2)C(=O)N[C@@H](Cc2ccccc2)C(=O)N2CCC[C@H]2C(=O)N[C@@H](Cc2c[nH]cn2)C(=O)N[C@@H](Cc2c[nH]cn2)C(=O)N[C@@H](Cc2ccc(O)cc2)C(=O)N1)C(=O)N[C@@H](Cc1ccc(O)cc1)C(=O)N[C@@H](Cc1ccc(-c2ccccc2)cc1)C(N)=O (single isomer, unassigned) [CBP8]
[1]; [3]
  Biodistribution % ID/g, blood: 0.523 ± 0.062 % ID/g
  Biodistribution % ID/g, heart: 0.340 ± 0.038 % ID/g
  Biodistribution % ID/g, kidney: 50.36 ± 2.756 % ID/g
  Biodistribution % ID/g, liver: 1.998 ± 0.117 % ID/g
  Biodistribution % ID/g, small intest.: 0.690 ± 0.064 % ID/g
  Biodistribution % ID/g, spleen: 0.925 ± 0.126 % ID/g
[1]; mouse
  organ uptake between groups, except lungs, in words: not significantly different
In vivo; blood
  tissue uptake at 2.5 h: 0.347 ± 0.017 %ID/g
In vivo; heart
  tissue uptake at 2.5 h: 0.293 ± 0.024 %ID/g
In vivo; kidney
  tissue uptake at 2.5 h: 42.7 ± 1.42 %ID/g
In vivo; liver
  tissue uptake at 2.5 h: 1.44 ± 0.108 %ID/g
In vivo; small intest.
  tissue uptake at 2.5 h: 0.477 ± 0.052 %ID/g
In vivo; spleen
  tissue uptake at 2.5 h: 0.47 ± 0.045 %ID/g
[2]
  Mean PET activity in heart and muscle, BM-treated vs sham, in words: not significantly different
